Key:
[1] = target: UBE2D3 WT (UniProt P61077 1-147); test: ITC
[2] = target: the molecule itself; test: native gel or EMSA
[3] = target: the molecule itself; test: semi-denaturing detergent agarose gel electrophoresis
[4] = target: the molecule itself; test: SDS-PAGE of LDS-resistant high molecular weight species

UBE2D3 WT, sequence (P61077 whole entry): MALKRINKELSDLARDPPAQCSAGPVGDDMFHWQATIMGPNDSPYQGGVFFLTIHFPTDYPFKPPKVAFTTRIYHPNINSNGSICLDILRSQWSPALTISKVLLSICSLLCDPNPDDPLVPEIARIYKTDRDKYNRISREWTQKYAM

B1: ZNFX1 Z-RING (residues 1533-1631), wild type (domain or fragment)
chain: RPPCYVPCTKLLVCGHPCIGLCGEPCPKKCRICHMDEVTQIFFGFEDEPDARFVQLEDCSHIFEVQALDRYMNEQKDDEVAIRLKVCPICQVPIRKNLR
B1 was tested, and the Kd [1] was 41 µM and the dH [1] was 2.04 kcal/mol.

B2: WT-ZNFX1 reconstituted in T-REx-293 ZNFX1 KO cells (enzyme)
chain: MEERRPHLDARPRNSHTNHRGPVDGELPPRARNQANNPPANALRGGASHPGRHPRANNHPAAYWQREERFRAMGRNPHQGRRNQEGHASDEARDQRHDQENDTRWRNGNQDCRNRRPPWSNDNFQQWRTPHQKPTEQPQQAKKLGYKFLESLLQKDPSEVVITLATSLGLKELLSHSSMKSNFLELICQVLRKACSSKMDRQSVLHVLGILKNSKFLKVCLPAYVVGMITEPIPDIRNQYPEHISNIISLLQDLVSVFPASSVQETSMLVSLLPTSLNALRASGVDIEEETEKNLEKVQTIIEHLQEKRREGTLRVDTYTLVQPEAEDHVESYRTMPIYPTYNEVHLDERPFLRPNIISGKYDSTAIYLDTHFRLLREDFVRPLREGILELLQSFEDQGLRKRKFDDIRIYFDTRIITPMCSSSGIVYKVQFDTKPLKFVRWQNSKRLLYGSLVCMSKDNFETFLFATVSNREQEDLCRGIVQLCFNEQSQQLLAEVQPSDSFLMVETTAYFEAYRHVLEGLQEVQEEDVPFQRNIVECNSHVKEPRYLLMGGRYDFTPLIENPSATGEFLRNVEGLRHPRINVLDPGQWPSKEALKLDDSQMEALQFALTRELAIIQGPPGTGKTYVGLKIVQALLTNESVWQISLQKFPILVVCYTNHALDQFLEGIYNCQKTSIVRVGGRSNSEILKQFTLRELRNKREFRRNLPMHLRRAYMSIMTQMKESEQELHEGAKTLECTMRGVLREQYLQKYISPQHWESLMNGPVQDSEWICFQHWKHSMMLEWLGLGVGSFTQSVSPAGPENTAQAEGDEEEEGEEESSLIEIAEEADLIQADRVIEEEEVVRPQRRKKEESGADQELAKMLLAMRLDHCGTGTAAGQEQATGEWQTQRNQKKKMKKRVKDELRKLNTMTAAEANEIEDVWQLDLSSRWQLYRLWLQLYQADTRRKILSYERQYRTSAERMAELRLQEDLHILKDAQVVGMTTTGAAKYRQILQKVEPRIVIVEEAAEVLEAHTIATLSKACQHLILIGDHQQLRPSANVYDLAKNFNLEVSLFERLVKVNIPFVRLNYQHRMCPEIARLLTPHIYQDLENHPSVLKYEKIKGVSSNLFFVEHNFPEQEIQEGKSHQNQHEAHFVVELCKYFLCQEYLPSQITILTTYTGQLFCLRKLMPAKTFAGVRVHVVDKYQGEENDIILLSLVRSNQEGKVGFLQISNRICVALSRAKKGMYCIGNMQMLAKVPLWSKIIHTLRENNQIGPMLRLCCQNHPETHTLVSKASDFQKVPEGGCSLPCEFRLGCGHVCTRACHPYDSSHKEFQCMKPCQKVICQEGHRCPLVCFQECQPCQVKVPKTIPRCGHEQMVPCSVPESDFCCQEPCSKSLRCGHRCSHPCGEDCVQLCSEMVTIKLKCGHSQPVKCGHVEGLLYGGLLVKCTTKCGTILDCGHPCPGSCHSCFEGRFHERCQQPCKRLLICSHKCQEPCIGECPPCQRTCQNRCVHSQCKKKCGELCSPCVEPCVWRCQHYQCTKLCSEPCNRPPCYVPCTKLLVCGHPCIGLCGEPCPKKCRICHMDEVTQIFFGFEDEPDARFVQLEDCSHIFEVQALDRYMNEQKDDEVAIRLKVCPICQVPIRKNLRYGTSIKQRLEEIEIIKEKIQGSAGEIATSQERLKALLERKSLLHQLLPEDFLMLKEKLAQKNLSVKDLGLVENYISFYDHLASLWDSLKKMHVLEEKRVRTRLEQVHEWLAKKRLSFTSQELSDLRSEIQRLTYLVNLLTRYKIAEKKVKDSIAVEVYSVQNILEKTCKFTQEDEQLVQEKMEALKATLPCSGLGISEEERVQIVSAIGYPRGHWFKCRNGHIYVIGDCGGAMERGTCPDCKEVIGGTNHTLERSNQLASEMDGAQHAAWSDTANNLMNFEEIQGMM
In the case of B2, the “stoichiometry N” value [2] is reported as 2.

B3: full length ZNFX1 expressed in insect cells (ZNFX1FL) (enzyme)
chain: MEERRPHLDARPRNSHTNHRGPVDGELPPRARNQANNPPANALRGGASHPGRHPRANNHPAAYWQREERFRAMGRNPHQGRRNQEGHASDEARDQRHDQENDTRWRNGNQDCRNRRPPWSNDNFQQWRTPHQKPTEQPQQAKKLGYKFLESLLQKDPSEVVITLATSLGLKELLSHSSMKSNFLELICQVLRKACSSKMDRQSVLHVLGILKNSKFLKVCLPAYVVGMITEPIPDIRNQYPEHISNIISLLQDLVSVFPASSVQETSMLVSLLPTSLNALRASGVDIEEETEKNLEKVQTIIEHLQEKRREGTLRVDTYTLVQPEAEDHVESYRTMPIYPTYNEVHLDERPFLRPNIISGKYDSTAIYLDTHFRLLREDFVRPLREGILELLQSFEDQGLRKRKFDDIRIYFDTRIITPMCSSSGIVYKVQFDTKPLKFVRWQNSKRLLYGSLVCMSKDNFETFLFATVSNREQEDLCRGIVQLCFNEQSQQLLAEVQPSDSFLMVETTAYFEAYRHVLEGLQEVQEEDVPFQRNIVECNSHVKEPRYLLMGGRYDFTPLIENPSATGEFLRNVEGLRHPRINVLDPGQWPSKEALKLDDSQMEALQFALTRELAIIQGPPGTGKTYVGLKIVQALLTNESVWQISLQKFPILVVCYTNHALDQFLEGIYNCQKTSIVRVGGRSNSEILKQFTLRELRNKREFRRNLPMHLRRAYMSIMTQMKESEQELHEGAKTLECTMRGVLREQYLQKYISPQHWESLMNGPVQDSEWICFQHWKHSMMLEWLGLGVGSFTQSVSPAGPENTAQAEGDEEEEGEEESSLIEIAEEADLIQADRVIEEEEVVRPQRRKKEESGADQELAKMLLAMRLDHCGTGTAAGQEQATGEWQTQRNQKKKMKKRVKDELRKLNTMTAAEANEIEDVWQLDLSSRWQLYRLWLQLYQADTRRKILSYERQYRTSAERMAELRLQEDLHILKDAQVVGMTTTGAAKYRQILQKVEPRIVIVEEAAEVLEAHTIATLSKACQHLILIGDHQQLRPSANVYDLAKNFNLEVSLFERLVKVNIPFVRLNYQHRMCPEIARLLTPHIYQDLENHPSVLKYEKIKGVSSNLFFVEHNFPEQEIQEGKSHQNQHEAHFVVELCKYFLCQEYLPSQITILTTYTGQLFCLRKLMPAKTFAGVRVHVVDKYQGEENDIILLSLVRSNQEGKVGFLQISNRICVALSRAKKGMYCIGNMQMLAKVPLWSKIIHTLRENNQIGPMLRLCCQNHPETHTLVSKASDFQKVPEGGCSLPCEFRLGCGHVCTRACHPYDSSHKEFQCMKPCQKVICQEGHRCPLVCFQECQPCQVKVPKTIPRCGHEQMVPCSVPESDFCCQEPCSKSLRCGHRCSHPCGEDCVQLCSEMVTIKLKCGHSQPVKCGHVEGLLYGGLLVKCTTKCGTILDCGHPCPGSCHSCFEGRFHERCQQPCKRLLICSHKCQEPCIGECPPCQRTCQNRCVHSQCKKKCGELCSPCVEPCVWRCQHYQCTKLCSEPCNRPPCYVPCTKLLVCGHPCIGLCGEPCPKKCRICHMDEVTQIFFGFEDEPDARFVQLEDCSHIFEVQALDRYMNEQKDDEVAIRLKVCPICQVPIRKNLRYGTSIKQRLEEIEIIKEKIQGSAGEIATSQERLKALLERKSLLHQLLPEDFLMLKEKLAQKNLSVKDLGLVENYISFYDHLASLWDSLKKMHVLEEKRVRTRLEQVHEWLAKKRLSFTSQELSDLRSEIQRLTYLVNLLTRYKIAEKKVKDSIAVEVYSVQNILEKTCKFTQEDEQLVQEKMEALKATLPCSGLGISEEERVQIVSAIGYPRGHWFKCRNGHIYVIGDCGGAMERGTCPDCKEVIGGTNHTLERSNQLASEMDGAQHAAWSDTANNLMNFEEIQGMM
B3: binds [3].

B4: ZNFX1FL F1210A/R1216A (FARA mutant) (enzyme)
chain: MEERRPHLDARPRNSHTNHRGPVDGELPPRARNQANNPPANALRGGASHPGRHPRANNHPAAYWQREERFRAMGRNPHQGRRNQEGHASDEARDQRHDQENDTRWRNGNQDCRNRRPPWSNDNFQQWRTPHQKPTEQPQQAKKLGYKFLESLLQKDPSEVVITLATSLGLKELLSHSSMKSNFLELICQVLRKACSSKMDRQSVLHVLGILKNSKFLKVCLPAYVVGMITEPIPDIRNQYPEHISNIISLLQDLVSVFPASSVQETSMLVSLLPTSLNALRASGVDIEEETEKNLEKVQTIIEHLQEKRREGTLRVDTYTLVQPEAEDHVESYRTMPIYPTYNEVHLDERPFLRPNIISGKYDSTAIYLDTHFRLLREDFVRPLREGILELLQSFEDQGLRKRKFDDIRIYFDTRIITPMCSSSGIVYKVQFDTKPLKFVRWQNSKRLLYGSLVCMSKDNFETFLFATVSNREQEDLCRGIVQLCFNEQSQQLLAEVQPSDSFLMVETTAYFEAYRHVLEGLQEVQEEDVPFQRNIVECNSHVKEPRYLLMGGRYDFTPLIENPSATGEFLRNVEGLRHPRINVLDPGQWPSKEALKLDDSQMEALQFALTRELAIIQGPPGTGKTYVGLKIVQALLTNESVWQISLQKFPILVVCYTNHALDQFLEGIYNCQKTSIVRVGGRSNSEILKQFTLRELRNKREFRRNLPMHLRRAYMSIMTQMKESEQELHEGAKTLECTMRGVLREQYLQKYISPQHWESLMNGPVQDSEWICFQHWKHSMMLEWLGLGVGSFTQSVSPAGPENTAQAEGDEEEEGEEESSLIEIAEEADLIQADRVIEEEEVVRPQRRKKEESGADQELAKMLLAMRLDHCGTGTAAGQEQATGEWQTQRNQKKKMKKRVKDELRKLNTMTAAEANEIEDVWQLDLSSRWQLYRLWLQLYQADTRRKILSYERQYRTSAERMAELRLQEDLHILKDAQVVGMTTTGAAKYRQILQKVEPRIVIVEEAAEVLEAHTIATLSKACQHLILIGDHQQLRPSANVYDLAKNFNLEVSLFERLVKVNIPFVRLNYQHRMCPEIARLLTPHIYQDLENHPSVLKYEKIKGVSSNLFFVEHNFPEQEIQEGKSHQNQHEAHFVVELCKYFLCQEYLPSQITILTTYTGQLFCLRKLMPAKTFAGVRVHVVDKYQGEENDIILLSLVRSNQEGKVGALQISNAICVALSRAKKGMYCIGNMQMLAKVPLWSKIIHTLRENNQIGPMLRLCCQNHPETHTLVSKASDFQKVPEGGCSLPCEFRLGCGHVCTRACHPYDSSHKEFQCMKPCQKVICQEGHRCPLVCFQECQPCQVKVPKTIPRCGHEQMVPCSVPESDFCCQEPCSKSLRCGHRCSHPCGEDCVQLCSEMVTIKLKCGHSQPVKCGHVEGLLYGGLLVKCTTKCGTILDCGHPCPGSCHSCFEGRFHERCQQPCKRLLICSHKCQEPCIGECPPCQRTCQNRCVHSQCKKKCGELCSPCVEPCVWRCQHYQCTKLCSEPCNRPPCYVPCTKLLVCGHPCIGLCGEPCPKKCRICHMDEVTQIFFGFEDEPDARFVQLEDCSHIFEVQALDRYMNEQKDDEVAIRLKVCPICQVPIRKNLRYGTSIKQRLEEIEIIKEKIQGSAGEIATSQERLKALLERKSLLHQLLPEDFLMLKEKLAQKNLSVKDLGLVENYISFYDHLASLWDSLKKMHVLEEKRVRTRLEQVHEWLAKKRLSFTSQELSDLRSEIQRLTYLVNLLTRYKIAEKKVKDSIAVEVYSVQNILEKTCKFTQEDEQLVQEKMEALKATLPCSGLGISEEERVQIVSAIGYPRGHWFKCRNGHIYVIGDCGGAMERGTCPDCKEVIGGTNHTLERSNQLASEMDGAQHAAWSDTANNLMNFEEIQGMM
B4: binds [4].
